# Test results: the supplement of paper PMC9112550, “Optimization of the antimicrobial peptide Bac7 by deep mutational scanning” (BMC Biology, 2022)
# Tested on: Escherichia coli TOP10
# Experiment: shrunken log2 fold change of peptide-encoding DNA abundance (4.5 h post-induction vs induction); higher = less antimicrobial activity (less host growth inhibition)
# Details: time post-induction: 4.5 h; library: site-saturation at positions 5, 18, 19, 20
# 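Note: peptides expressed intracellularly from a pBAD plasmid library in pooled LB shake-flask culture, induced with 0.3% L-arabinose, DNA abundance read by NGS, three biological replicates, DESeq2 with apeglm shrinkage.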
row,Sequence,shrunken log2 fold change
1,RRIRHRPPRLPRPRPRPFHYPRP,-0.0791
2,RRIRWRPPRLPRPRPRPRCTPRP,0.243
3,RRIRWRPPRLPRPRPRPIPKPRP,0.102
4,RRIRTRPPRLPRPRPRPEPPPRP,0.395
5,RRIRNRPPRLPRPRPRPPDPPRP,0.497
6,RRIRPRPPRLPRPRPRPKHWPRP,0.273
7,RRIRWRPPRLPRPRPRPWFCPRP,-0.0932
8,RRIRCRPPRLPRPRPRPNCCPRP,0.188
9,RRIRARPPRLPRPRPRPPYIPRP,-0.38
10,RRIRTRPPRLPRPRPRPEARPRP,0.552
11,RRIRRRPPRLPRPRPRPHFGPRP,0.111
12,RRIRARPPRLPRPRPRPKTHPRP,0.227
13,RRIRGRPPRLPRPRPRPYNLPRP,-0.487
14,RRIRARPPRLPRPRPRPTRYPRP,0.356
15,RRIRIRPPRLPRPRPRPHDQPRP,-0.573
16,RRIRKRPPRLPRPRPRPRRNPRP,0.316
17,RRIRKRPPRLPRPRPRPPQHPRP,0.5
18,RRIRARPPRLPRPRPRPREFPRP,0.441
19,RRIRGRPPRLPRPRPRPVRPPRP,0.994
20,RRIRWRPPRLPRPRPRPFVIPRP,-0.396
21,RRIRMRPPRLPRPRPRPCGWPRP,1.03
22,RRIRFRPPRLPRPRPRPMAVPRP,-0.0113
23,RRIRTRPPRLPRPRPRPRLLPRP,0.0778
24,RRIRNRPPRLPRPRPRPTDTPRP,-0.08
25,RRIRERPPRLPRPRPRPRQKPRP,0.0386
26,RRIRFRPPRLPRPRPRPLYLPRP,-0.826
27,RRIRPRPPRLPRPRPRPKKLPRP,-0.0688

row,Sequence,shrunken log2 fold change
1,RRIRKRPPRLPRPRPRPPMWPRP,0.297
2,RRIRWRPPRLPRPRPRPYGPPRP,-0.0264
3,RRIRHRPPRLPRPRPRPRLFPRP,0.164
4,RRIRRRPPRLPRPRPRPQHNPRP,0.0256
5,RRIRCRPPRLPRPRPRPLIMPRP,-0.689
6,RRIRPRPPRLPRPRPRPLTCPRP,-0.191
7,RRIRQRPPRLPRPRPRPCCQPRP,-0.00534
8,RRIRSRPPRLPRPRPRPYNRPRP,-0.267
9,RRIRRRPPRLPRPRPRPQVHPRP,0.148
10,RRIRVRPPRLPRPRPRPDPNPRP,-0.231
11,RRIRLRPPRLPRPRPRPMMDPRP,-0.0843
12,RRIRWRPPRLPRPRPRPSFIPRP,-0.545
13,RRIRHRPPRLPRPRPRPRLWPRP,0.63
14,RRIRVRPPRLPRPRPRPCWNPRP,0.0501
15,RRIRLRPPRLPRPRPRPDLAPRP,-0.062
16,RRIRPRPPRLPRPRPRPAGLPRP,0.279
17,RRIRKRPPRLPRPRPRPNIHPRP,-0.112
18,RRIRARPPRLPRPRPRPTTNPRP,0.389
19,RRIRMRPPRLPRPRPRPTVVPRP,0.0159
20,RRIRFRPPRLPRPRPRPCKGPRP,0.000407
21,RRIRLRPPRLPRPRPRPDVGPRP,-0.0266
22,RRIRPRPPRLPRPRPRPHCAPRP,0.228
23,RRIRSRPPRLPRPRPRPVMAPRP,0.304
24,RRIRCRPPRLPRPRPRPCMDPRP,-0.09
25,RRIRSRPPRLPRPRPRPNAPPRP,0.0774
26,RRIRHRPPRLPRPRPRPMYDPRP,0.0149
27,RRIRWRPPRLPRPRPRPNQSPRP,-0.108
